Experimental data reported in paper doi:10.1101/2024.12.18.629156.

What was measured:
[1] = system: His6-SUMO-ecHOP1-wHTH WT (Ectocarpus (E. siliculosus; model brown alga)); experiment: EMSA
[2] = molecular target: ecHOP1-HORMA (2xStrepII-ecHOP1-HORMA, residues 1-274) (Ectocarpus); experiment: ITC

Substance | Kd [1] [µM] | Kd [2] [µM]
167 bp Widom DNA | 0.25 | 
MBP-ecHOP1 CM1-1 (closure motif 1 of ecHOP1 isoform 1, residues 567-600) (domain or fragment) |  | 7.2
MBP-ecHOP1 CM2-1 (closure motif 2 of ecHOP1 isoform 1, residues 665-694) (domain or fragment) |  | 10.6
MBP-ecRED1 CM1 (putative closure motif 1 of ecRED1) (domain or fragment) |  | 60.3
